The target of experiment [1] is T1, catalytic region of CaCdc25 (REM-CAT tandem) (Candida albicans, UniProt P43069).
T1 construct: PDB 7NZZ holds this construct; also called REM-CAT tandem of CaCdc25; catalytic region of the CaRas1 guanine nucleotide exchange factor CaCdc25
T1 sequence: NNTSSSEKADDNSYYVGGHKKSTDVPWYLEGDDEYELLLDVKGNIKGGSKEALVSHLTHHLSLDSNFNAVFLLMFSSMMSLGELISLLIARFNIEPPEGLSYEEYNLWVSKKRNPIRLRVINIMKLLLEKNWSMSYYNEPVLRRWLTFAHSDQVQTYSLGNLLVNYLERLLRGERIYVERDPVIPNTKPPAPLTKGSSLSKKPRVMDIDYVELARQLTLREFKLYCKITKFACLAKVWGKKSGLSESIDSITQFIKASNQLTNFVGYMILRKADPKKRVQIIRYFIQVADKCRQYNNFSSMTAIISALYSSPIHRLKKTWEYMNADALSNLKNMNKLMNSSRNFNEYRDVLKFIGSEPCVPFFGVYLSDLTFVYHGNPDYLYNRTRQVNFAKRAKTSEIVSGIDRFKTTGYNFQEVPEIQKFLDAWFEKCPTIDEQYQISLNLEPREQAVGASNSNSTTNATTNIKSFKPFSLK
The experiment can be described thus: ITC; recombinant CaCdc25 (REM-CAT tandem) titrated with CaRas1-FL or G-domain, MicroCal VP-ITC, single binding site model. The note with it: both partners purified. (In ITC the heat of successive injections is recorded.)

For experiment [2], the target named is T1, catalytic region of CaCdc25 (REM-CAT …). The experiment is described as follows: SAXS; small angle X-ray scattering in solution, P12 beamline (EMBL, DESY), profiles extrapolated to infinite dilution; oligomeric state and stoichiometry deduced from the estimated masses (Table S1). The note with it: both partners purified.

We go through 2 molecules from publication PMC10470544, “Pathogen-specific structural features of Candida albicans Ras1 activation complex: uncovering new antifungal drug targets” (mBio, 2023).

B1: full-length Candida albicans Ras-like protein 1 (CaRas1-FL, 1–290) (natural protein)
chain: MLREYKLVVVGGGGVGKSALTIQLIQSHFVDEYDPTIEDSYRKQCTIDDQQVLLDVLDTAGQEEYSAMREQYMRTGEGFLLVYSINSLNSFQELNSFYDQILRVKDSDNVPVLVVGNKCDLEMERQVSYEDGLALANSFNCPFLETSAKQRINVEEAFYGLVRNINQYNAKIAEAEKQQQQQQQQQNANQQGQDQYGQQKDNQQSQFNNQINNNNNTSAVNGGVSSDGIIDQNGNGGVSSGQANLPNQSQSQSQRQQQQQQQEPQQQSENQFSGQKQSSSKSKNGCCVIV
notes: Ras-like protein 1 (CaRas1), Candida albicans, full-length protein, residues 1-290 (G-domain 1-166, hypervariable region 167-290); Monomeric in solution by SAXS; also called full-length CaRas1
By Kd is commonly meant the concentration at which binding is half-saturated. One may read the stoichiometry N as the number of molecules, sites or subunits per partner or assembly. Consider B1, for which, in experiment [1], the Kd turned out to be 9 µM. The “stoichiometry N” value in experiment [2] was 1.

B2: isolated G-domain of CaRas1 (1–166) (domain or fragment)
chain: MLREYKLVVVGGGGVGKSALTIQLIQSHFVDEYDPTIEDSYRKQCTIDDQQVLLDVLDTAGQEEYSAMREQYMRTGEGFLLVYSINSLNSFQELNSFYDQILRVKDSDNVPVLVVGNKCDLEMERQVSYEDGLALANSFNCPFLETSAKQRINVEEAFYGLVRNIN
notes: Ras-like protein 1 (CaRas1), Candida albicans, GTPase domain (G-domain), residues 1-166; Monomeric in solution by SAXS; also called CaRas1 G-domain
Consider B2, for which the Kd in experiment [1] turned out to be 9 µM. Moreover, in experiment [2], the “stoichiometry N” value was 1.
